# From patent publication US6673571B2, “Polypeptides having aminopeptidase activity and nucleic acids encoding same” (Novozymes Biotech, Inc., priority 1997, dated 2004)
# B1: Sphingomonas capsulata aminopeptidase I: purified aminopeptidase of 67 kDa from Sphingomonas capsulata IFO 12533; deduced amino acid sequence SEQ ID NO:2 (protein)
# chain: MRKTPQGIGLLSALSTSTLALATLILAQPALAQVQPASNSRPMAVPIAHGVPDAQDVPYPGTIGLQIDATDLATGAFRVVETVPVAADAKELILQLPAWLPGEHGNRGPVAELAGITFEAKGQKLAWTRDPVEVNAFHIPLPAGTSEVVARFIHTSPLRDSEGRITVTREMLNVQWEKMSLYPAGHYVRQIKVRPTVSFPQGWTVFTALDGKTQSGAGNTVTWAETDYETLVDSPIFAGLYAARHDLGHNVYFDLVADKPELLAIKPENLAAYRNLADEAVGAFGARHFDHYDFLLALTDRMGSIGLEHHRSSENQQEPKSLTDWAAYDWDRNVIAHEFSHSWDGKYRRSAKLWTPDYRQPMQDNLLWVYEGQTQFWGLVLAARSGVQSKDVVLGSLANYAGTFTQTAGRDWRSVEDTTMDPIFAARKPKPYSSLTRNEDYYTEGALVWLEADQIIRDGTGGKKGLDDFAKAFFGVRDGDWGVLTYEFDDVVKTLNGVYPYDWATFLKTRLQTPGQPVPLGGIERGGYKLEFKDEPNPYDKARMADAKVLSLFNSLGVTLDKDGKVTASRWDGPAFKAGLVSGMQVMAVNGDAYDADKLKGAITNAKTGNPGAGRPIELLVKRDDRFVTLPITYADGLRWPWLVRTAPGTAPTGLDKLLAPHASKLPVGKAAK
# Tests used:
# soy protein = experiment: Release of free amino acids (FAA) in soy protein hydrolysis; type: biochemical, soy bean
# Protocol: Hydrolysis was carried out on a 10 ml scale at 50° C. for 18 hours. The initial pH was 7 with no pH readjustment during hydrolysis. Inactivation of the enzyme was carried out at 85° C. for 3 minutes in a water bath. The substrate concentration was 2% protein from soy bean meal. The substrate was heat treated in a water bath at 85° C. for 3 minutes. The enzymes used with FLAVOURZYME 1000L™ and ALCALASE 2.4L® described above were crude Sphingomonas capsulata aminopeptidase I powder (see Example 1) and the purified Sphingomonas capsulata aminopeptidase I described in Example 4.
# Hyp, methioninsulphonic acid, and Trp were not included in the Table due to very fluctuating and uncertain results.
# [1] = Temperature stability (residual activity after 20 minutes incubation); type: physicochemical; settings: pH 7.5
# Protocol: The temperature stability of aminopeptidase I was determined by incubating the enzyme for 20 minutes in 50 mM sodium phosphate pH 7.5 buffer at temperatures in the range of 35° C. to 55° C. followed by cooling on ice and measuring the residual activity using Ala-pNA as substrate at pH 7.5 as described above.
# [2] = Isoelectric point by activity staining method; type: physicochemical; settings: freshly prepared enzyme
# Text: The isoelectric point of the aminopeptidase is variable since the isoelectric point of the freshly prepared enzyme is estimated as 8.4 using an activity staining method, however, the isoelectric point varies from 7.4 to 8.5 during the course of purification and/or storage. The uncertainty of the isoelectric point may be due to the self digestion of the aminopeptidase from its amino terminal.
# gelatin = experiment: Degree of hydrolysis (DH) in gelatin hydrolysis, OPA method; type: biochemical; settings: 50° C., 18 hours
# Protocol: The aminopeptidase I was added in increased dosage to either a low or a high background of FLAVOURZYME™ and ALCALASE® as performed in Example 7.
# Hydrolysis was carried out in 200 μl reactions in Eppendorf tubes. The substrate gelatin (Merck) was dissolved in distilled water at 85° C. for 5 minutes. After cooling to 50° C., the pH was adjusted to 6.5. The final gelatin concentration was adjusted to 2% after the addition of enzymes. The substrate concentration in each reaction was calculated to be 4 mg.
# The hydrolysis reactions were performed at 50° C. for 18 hours. Enzymes were inactivated at 85° C. for 5 minutes followed by centrifugation. DH was calculated on the basis of the total protein content of hydrolysate using the OPA method.
# [3] = pH optimum / pH profile with Ala-pNA; type: biochemical
# [4] = Substrate specificity: initial rates of hydrolysis of para-nitroanilides; type: biochemical; settings: Gly-Phe-pNA versus Ala-Ala-pNA
# [5] = pH optimum / pH profile with Ala-pNA; type: biochemical; settings: room temperature
# Protocol: The pH optimum for the 67 kDa aminopeptidase I was determined using the following protocol. The buffer solutions at different pH's were prepared by adding distilled water to 4.25 g of sodium acetate and 3.78 g of Tris (free base) to a final volume of 250 ml and adjusting the pH to 8.5, 8.0, 7.5, 7.0, 6.5, 5.80, 5.5, and 5.0 with 36.5-38% HCl. Aliquots of 10 ml were removed at each pH. A 20 μl volume of a 100 mg/ml solution of Ala-pNA in DMSO was added to 980 μl of each buffer solution. The pH was then determined to be 8.5, 8.0, 7.57, 7.30, 7.09, 6.68, 6.14, and 5.25 for the buffer solutions after the addition of the substrate. Another solution of substrate at a concentration of 2 mg/ml was prepared at the various pHs. The reaction was initiated by the addition of 10 μl of enzyme solution, diluted 5-fold in 10 mM Tris-HCl pH 7.5, to 200 μl of substrate at the various pHs at room temperature and monitored at 405 nm.
# There was no detectable autohydrolysis of Ala-pNa in the pH range 5.25-8.5.
# [6] = 1.5% FLAVOURZYME +67 kDa AP versus 6.0% FLAVOURZYME
molecule,measurement,setting,value
B1,% Relative increase in FAA: Ala,soy protein; 1.5% FLAVOURZYME +67 kDa AP,130.3%
same,% Relative increase in FAA: Arg,soy protein; 1.5% FLAVOURZYME +67 kDa AP,37.4%
same,% Relative increase in FAA: Asn,soy protein; 1.5% FLAVOURZYME +67 kDa AP,32.3%
same,% Relative increase in FAA: Asp,soy protein; 1.5% FLAVOURZYME +67 kDa AP,164.5%
same,% Relative increase in FAA: Cys,soy protein; 1.5% FLAVOURZYME +67 kDa AP,12.6%
same,% Relative increase in FAA: Gln,soy protein; 1.5% FLAVOURZYME +67 kDa AP,138.9%
same,% Relative increase in FAA: Glu,soy protein; 1.5% FLAVOURZYME +67 kDa AP,145.9%
same,% Relative increase in FAA: Gly,soy protein; 1.5% FLAVOURZYME +67 kDa AP,305.7%
same,% Relative increase in FAA: His,soy protein; 1.5% FLAVOURZYME +67 kDa AP,30.3%
same,% Relative increase in FAA: Ile,soy protein; 1.5% FLAVOURZYME +67 kDa AP,48.7%
same,% Relative increase in FAA: Leu,soy protein; 1.5% FLAVOURZYME +67 kDa AP,35.2%
same,% Relative increase in FAA: Lys,soy protein; 1.5% FLAVOURZYME +67 kDa AP,62.4%
same,% Relative increase in FAA: Met,soy protein; 1.5% FLAVOURZYME +67 kDa AP,−20.0%
same,% Relative increase in FAA: Phe,soy protein; 1.5% FLAVOURZYME +67 kDa AP,41.8%
same,% Relative increase in FAA: Pro,soy protein; 1.5% FLAVOURZYME +67 kDa AP,32.4%
same,% Relative increase in FAA: Ser,soy protein; 1.5% FLAVOURZYME +67 kDa AP,69.3%
same,% Relative increase in FAA: Thr,soy protein; 1.5% FLAVOURZYME +67 kDa AP,34.7%
same,% Relative increase in FAA: Tyr,soy protein; 1.5% FLAVOURZYME +67 kDa AP,47.6%
same,% Relative increase in FAA: Val,soy protein; 1.5% FLAVOURZYME +67 kDa AP,44.0%
same,% Relative increase in FAA: total,soy protein; 1.5% FLAVOURZYME +67 kDa AP,64.5%
same,% Relative increase in FAA: Ala,soy protein; [6],27.3%
same,% Relative increase in FAA: Arg,soy protein; [6],−2.9%
same,% Relative increase in FAA: Asn,soy protein; [6],−15.2%
same,% Relative increase in FAA: Asp,soy protein; [6],24.2%
same,% Relative increase in FAA: Cys,soy protein; [6],6.3%
same,% Relative increase in FAA: Gln,soy protein; [6],9.9%
same,% Relative increase in FAA: Glu,soy protein; [6],28.7%
same,% Relative increase in FAA: Gly,soy protein; [6],90.6%
same,% Relative increase in FAA: His,soy protein; [6],−6.8%
same,% Relative increase in FAA: Ile,soy protein; [6],−21.0%
same,% Relative increase in FAA: Leu,soy protein; [6],−9.1%
same,% Relative increase in FAA: Lys,soy protein; [6],−1.4%
same,% Relative increase in FAA: Met,soy protein; [6],−46.7%
same,% Relative increase in FAA: Phe,soy protein; [6],−4.5%
same,% Relative increase in FAA: Pro,soy protein; [6],−39.7%
same,% Relative increase in FAA: Ser,soy protein; [6],12.5%
same,% Relative increase in FAA: Thr,soy protein; [6],−18.3%
same,% Relative increase in FAA: Tyr,soy protein; [6],−6.9%
same,% Relative increase in FAA: Val,soy protein; [6],−17.7%
same,% Relative increase in FAA: total,soy protein; [6],0.0%
same,% Relative increase in FAA: Ala,soy protein; 6.0% FLAVOURZYME +67 kDa AP,36.5%
same,% Relative increase in FAA: Arg,soy protein; 6.0% FLAVOURZYME +67 kDa AP,−31.4%
same,% Relative increase in FAA: Asn,soy protein; 6.0% FLAVOURZYME +67 kDa AP,7.6%
same,% Relative increase in FAA: Asp,soy protein; 6.0% FLAVOURZYME +67 kDa AP,24.8%
same,% Relative increase in FAA: Cys,soy protein; 6.0% FLAVOURZYME +67 kDa AP,9.5%
same,% Relative increase in FAA: Gln,soy protein; 6.0% FLAVOURZYME +67 kDa AP,28.1%
same,% Relative increase in FAA: Glu,soy protein; 6.0% FLAVOURZYME +67 kDa AP,31.3%
same,% Relative increase in FAA: Gly,soy protein; 6.0% FLAVOURZYME +67 kDa AP,92.9%
same,% Relative increase in FAA: His,soy protein; 6.0% FLAVOURZYME +67 kDa AP,7.5%
same,% Relative increase in FAA: Ile,soy protein; 6.0% FLAVOURZYME +67 kDa AP,7.2%
same,% Relative increase in FAA: Leu,soy protein; 6.0% FLAVOURZYME +67 kDa AP,5.2%
same,% Relative increase in FAA: Lys,soy protein; 6.0% FLAVOURZYME +67 kDa AP,13.8%
same,% Relative increase in FAA: Met,soy protein; 6.0% FLAVOURZYME +67 kDa AP,21.1%
same,% Relative increase in FAA: Phe,soy protein; 6.0% FLAVOURZYME +67 kDa AP,7.2%
same,% Relative increase in FAA: Pro,soy protein; 6.0% FLAVOURZYME +67 kDa AP,−11.5%
same,% Relative increase in FAA: Ser,soy protein; 6.0% FLAVOURZYME +67 kDa AP,41.7%
same,% Relative increase in FAA: Thr,soy protein; 6.0% FLAVOURZYME +67 kDa AP,2.4%
same,% Relative increase in FAA: Tyr,soy protein; 6.0% FLAVOURZYME +67 kDa AP,8.5%
same,% Relative increase in FAA: Val,soy protein; 6.0% FLAVOURZYME +67 kDa AP,6.3%
same,% Relative increase in FAA: total,soy protein; 6.0% FLAVOURZYME +67 kDa AP,10.3%
same,residual activity,[1]; 45° C.,approximately 60%
same,residual activity,[1]; 50° C.,completely inactivated
same,temperature stability,[1]; up to 40° C.,approximately 100%
same,isoelectric point,[2],~8.4
same,DH,"gelatin; 0.2 U/4 mg gelatin added to low FLAVOURZYME background (2%) + 1% ALCALASE, from DH 38%",61%
same,DH,gelatin; added to 7% FLAVOURZYME + 1% ALCALASE,61%
same,Km,"[3]; Ala-pNA, pH 7.5",2500 µM
same,kinetics of hydrolysis of Ala-pNA,"[3]; pH 5.5, apparent Km and Vmax negative due to activation by substrate",did not follow Michaelis-Menten kinetics
same,hydrolysis of dipeptide substrates,[4],hydrolysed Gly-Phe-pNA more quickly than Ala-Ala-pNA
same,Relative activity (%),"[5]; pH 5.25, Ala-pNA",24.9%
same,Relative activity (%),"[5]; pH 6.14, Ala-pNA",56.4%
same,Relative activity (%),"[5]; pH 6.68, Ala-pNA",78.4%
same,Relative activity (%),"[5]; pH 7.09, Ala-pNA",99.4%
same,Relative activity (%),"[5]; pH 7.30, Ala-pNA",100%
same,Relative activity (%),"[5]; pH 7.57, Ala-pNA",92.8%
same,Relative activity (%),"[5]; pH 8.0, Ala-pNA",61%
same,Relative activity (%),"[5]; pH 8.49, Ala-pNA",24.2%
